koff data for eight molecules are collected here from US20150037348A1 (AbbVie / Abbott, published 2015).

What is called koff is the first-order rate constant of dissociation. A higher koff goes with a short-lived complex.

The labels stand for the following.
T1: human IL-12 (human, UniProt P29459 23-219; P29460 23-328)
T1 construct: recombinant human IL-12 heterodimer (p35/p40, disulfide-linked); also called hIL-12; rhIL-12
T1 sequence (looked up) 1: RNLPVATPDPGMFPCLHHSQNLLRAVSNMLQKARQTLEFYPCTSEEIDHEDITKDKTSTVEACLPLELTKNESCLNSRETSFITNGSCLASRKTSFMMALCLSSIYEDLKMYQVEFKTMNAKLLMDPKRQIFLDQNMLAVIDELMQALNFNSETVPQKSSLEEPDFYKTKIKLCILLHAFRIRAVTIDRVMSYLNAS
T1 sequence (looked up) 2: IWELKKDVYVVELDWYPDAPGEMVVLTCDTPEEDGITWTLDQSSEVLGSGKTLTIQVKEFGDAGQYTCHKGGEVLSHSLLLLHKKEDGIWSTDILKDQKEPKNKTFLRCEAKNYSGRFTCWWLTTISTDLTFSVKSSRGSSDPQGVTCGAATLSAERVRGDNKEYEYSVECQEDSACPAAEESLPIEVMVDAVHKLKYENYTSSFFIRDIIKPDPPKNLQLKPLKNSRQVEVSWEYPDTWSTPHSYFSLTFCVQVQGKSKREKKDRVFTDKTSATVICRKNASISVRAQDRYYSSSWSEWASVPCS

B1: 156-6 (scFv, V domains shown)
VH: QVQLVQSGGGVVQPGRSLRLSCAASGFTFSSYGMHWVRQAPGKGLEWVAFIRYDGSNKYYADSVKGRFTISRDNSKNTLYLQMKSLRAEDTAVYYCTTHGSHDNWGQGTMVTVSS
VL: SYVLTQPPSVSGTPGQRVTISCSGGRSNIGSNTVKWYQQLPGTAPKLLIYGNDQRPSGVPDRFSGSKSGTSASLAITGVQAEDEADYYCQSYDRDFTGSRVFGTGTKVTVL
notes: scFv
B2: 170-11 (scFv, V domains shown)
VH: QVQLVQSGGGVVQPGRSLRLSCAASGFTFSSYGMHWVRQAPGKGLEWVAFIRYDGSNKYYADSVKGRFTISRDNSKNTLYLQMKSLRAEDTAVYYCTTSGSYDYWGQGTMVTVSS
VL: SYVLTQPPSVSGTPGQRVTISCSGGRSNIGSNTVKWYQQLPGTAPKLLIYGNDQRPSGVPDRFSGSKSGTSASLAITGVQAEDEADYYCQSYDRGLTGFRVFGTGTKVTVL
notes: scFv
B3: 170-35 (scFv, V domains shown)
VH: QVQLVQSGGGVVQPGRSLRLSCAASGFTFSSYGMHWVRQAPGKGLEWVAFIRYDGSNKYYADSVKGRFTISRDNSKNTLYLQMKSLRAEDTAVYYCATHGSQDNWGQGTMVTVSS
VL: SYVLTQPPSVSGTPGQRVTISCSGGRSNIGSNTVKWYQQLPGTAPKLLIYGNDQRPSGVPDRFSGSKSGTSASLAITGVQAEDEADYYCQSYDRGFTGSRVFGTGTKVTVL
notes: scFv
B4: 170-15 (scFv, V domains shown)
VH: QVQLVQSGGGVVQPGRSLRLSCAASGFTFSSYGMHWVRQAPGKGLEWVAFIRYDGSNKYYADSVKGRFTISRDNSKNTLYLQMKSLRAEDTAVYYCTTSGSYDYWGQGTMVTVSS
VL: SYVLTQPPSVSGTPGQRVTISCSGGRSNIGSNTVKWYQQLPGTAPKLLIYGNDQRPSGVPDRFSGSKSGTSASLAITGVQAEDEADYYCQSYDRGLTGYRLFGTGTKVTVL
notes: scFv
B5: 156-17 (scFv, V domains shown)
VH: QVQLVQSGGGVVQPGRSLRLSCAASGFTFSSYGMHWVRQAPGKGLEWVAFIRYDGSNKYYADSVKGRFTISRDNSKNTLYLQMKSLRAEDTAVYYCTTHGSHDNWGQGTMVTVSS
VL: SYVLTQPPSVSGTPGQRVTISCSGGRSNIGSNTVKWYQQLPGTAPKLLIYGNDQRPSGVPDRFSGSKSGTSASLAITGVQAEDEADYYCQSYDSSLWGTRVFGTGTKVTVL
notes: scFv
B6: 170-1 (scFv, V domains shown)
VH: QVQLVQSGGGVVQPGRSLRLSCAASGFTFSSYGMHWVRQAPGKGLEWVAFIRYDGSNKYYADSVKGRFTISRDNSKNTLYLQMKSLRAEDTAVYYCTTSGSYDYWGQGTMVTVSS
VL: SYVLTQPPSVSGTPGQRVTISCSGGRSNIGSNTVKWYQQLPGTAPKLLIYGNDQRPSGVPDRFSGSKSGTSASLAITGVQAEDEADYYCQSYDRGFTGFKVFGTGTKVTVL
notes: scFv
B7: 170-21 (scFv, V domains shown)
VH: QVQLVQSGGGVVQPGRSLRLSCAASGFTFSSYGMHWVRQAPGKGLEWVAFIRYDGSNKYYADSVKGRFTISRDNSKNTLYLQMKSLRAEDTAVYYCTTHGSQDNWGQGTMVTVSS
VL: SYVLTQPPSVSGTPGQRVTISCSGGRSNIGSNTVKWYQQLPGTAPKLLIYGNDQRPSGVPDRFSGSKSGTSASLAITGVQAEDEADYYCQSYDRGFTGPRLFGTGTKVTVL
notes: scFv
B8: 170-19 (scFv, V domains shown)
VH: QVQLVQSGGGVVQPGRSLRLSCAASGFTFSSYGMHWVRQAPGKGLEWVAFIRYDGSNKYYADSVKGRFTISRDNSKNTLYLQMKSLRAEDTAVYYCTTHGSHDNWGQGTMVTVSS
VL: SYVLTQPPSVSGTPGQRVTISCSGGRSNIGSNTVKWYQQLPGTAPKLLIYGNDQRPSGVPDRFSGSKSGTSASLAITGVQAEDEADYYCQSYDRGFTDYKVFGTGTKVTVL
notes: scFv

The target of the assay is T1, human IL-12. The assay is described as follows: SPR (BIAcore), IL-12 chip. The text has this: The system utilizes the optical properties of SPR to detect alterations in protein concentrations within a dextran biosensor matrix. Proteins are covalently bound to the dextran matrix at known concentrations. […] To determine the off rate (koff), on rate (kₒₙ), association rate (Ka) and dissociation rate (Kd) constants, BIAcore kinetic evaluation software (version 2.1) was used.
(In general: Surface plasmon resonance follows binding to a sensor surface in real time, without labels.)
In turn, B1 yielded a koff of 0.003 s⁻¹.

Molecule B2 registered a koff of 0.00044 s⁻¹.

For the molecule B3, the koff was 1e-05 s⁻¹.

In the case of B4, the koff is 0.00443 s⁻¹.

Take B5: the koff amounted to 0.006 s⁻¹.

B6 gave a koff of 0.00235 s⁻¹.

As for B7, the koff amounted to 0.00369 s⁻¹.

In turn, B8 registered a koff of 0.001 s⁻¹. Compared with the last molecule, the koff is about 3.7-fold lower.
